# Results from patent publication US20240034774A1 (Gilead, published 2024).
# Changes are numbered by the printed parent chain.
# B1: 1.1.22-1 (antibody, human IgG1, kappa)
# heavy: QVQLLQSGAAVTKPGASVRVSCEASGYNIRDYFIHWWRQAPGQGLQWVGWINPKTGQPNNPRQFQGRVSLTRHASWDFDTFSFYMDLKALRSDDTAVYFCARQRSDYWDFDVWGSGTQVTVSSASTKGPSVFPLAPSSKSTSGGTAALGCLVKDYFPEPVTVSWNSGALTSGVHTFPAVLQSSGLYSLSSVVTVPSSSLGTQTYICNVNHKPSNTKVDKKVEPKSCDKTHTCPPCPAPELLAGPDVFLFPPKPKDTLMISRTPEVTCVVVDVSHEDPEVKFNWYVDGVEVHNAKTKPREEQYNSTYRVVSVLTVLHQDWLNGKEYKCKVSNKALPLPEEKTISKAKGQPREPQVYTLPPSREEMTKNQVSLTCLVKGFYPSDIAVEWESNGQPENNYKTTPPVLDSDGSFFLYSKLTVDKSRWQQGNVFSCSVLHEALHSHYTQKSLSLSPGK
# light: DIQMTQSPSSLSASVGDTVTITCQANGYLNWYQQRRGKAPKLLIYDGSKLERGVPSRFSGRRWGQEYNLTINNLQPEDIATYFCQVYEFVSPGTNLDLKRTVAAPSVFIFPPSDEQLKSGTASVVCLLNNFYPREAKVQWKVDNALQSGNSQESVTEQDSKDSTYSLSSTLTLSKADYEKHKVYACEVTHQGLSSPVTKSFNRGEC
# B2: 1.1.23-1 (antibody, human IgG1, kappa)
# heavy: B1 heavy
# light: B1 light with S91T
# B3: 1.1.24-1 (antibody, human IgG1, kappa)
# heavy: B1 heavy
# light: B1 light with S91V, N95R, L96V
# B4: 1.1.25-1 (antibody, human IgG1, kappa)
# heavy: B1 heavy
# light: B1 light with S91V, L96V
# B5: 1.1.26-1 (antibody, human IgG1, kappa)
# heavy: B1 heavy
# light: B1 light with S91V, N95R, L98I
# B6: 1.1.27-1 (antibody, human IgG1, kappa)
# heavy: B1 heavy
# light: B1 light with S91V, N95R, L96V, L98I
# B7: 1.1.28-1 (antibody, human IgG1, kappa)
# heavy: B1 heavy
# light: B1 light with S91V, L96V, L98I
# B8: 1.1.29-1 (antibody, human IgG1, kappa)
# heavy: B1 heavy
# light: B1 light with S91G, L96V, L98I
# B9: 1.1.30-1 (antibody, human IgG1, kappa)
# heavy: B1 heavy
# light: B1 light with S91T, L96V, L98I
# B10: 1.1.31-1 (antibody, human IgG1, kappa)
# heavy: B1 heavy
# light: B1 light with N68T, N72S, N73S, S91V
# B11: 1.1.32-1 (antibody, human IgG1, kappa)
# heavy: B1 heavy
# light: B1 light with N68T, N72S, N73S, S91T, N95R
# B12: 1.1.33-1 (antibody, human IgG1, kappa)
# heavy: B1 heavy
# light: B1 light with K49N, N68T, N72S, N73S, S91V, L98I
# B13: 1.1.34-1 (antibody, human IgG1, kappa)
# heavy: B1 heavy
# light: B1 light with K49N, N68T, N72S, N73S, S91T, N95R, L98I
# B14: 1.1.35-1 (antibody, human IgG1, kappa, V domains shown)
# VH: QVQLLQSGAAVTKPGASVRVSCEASGYNIRDYFIHWWRQAPGQGLQWVGWINPKTGQPNNPRQFQGRVSLTRHASWDFDTFSFYMDLKALRSDDTAVYFCARQRSDYWDFDVWGSGTQVTVSS
# VL: DIQMTQSPSSLSASVGDRVTITCQANGYLNWYQQKPGKAPKLLIYDGSNLETGVPSRFSGSRWGQEYTLTISSLQPEDIATYFCQVYEFVGPGTNLDIKR
# B15: 1.1.36-1 (antibody, human IgG1, kappa)
# heavy: B1 heavy
# light: DIQMTQSPSSLSASVGDRVTITCQANGYLNWYQQKPGKAPKLLIYDGSNLETGVPSRFSGSRWGQEYTLTISSLQPEDIATYFCQVYEFVTPGTNLDIKRTVAAPSVFIFPPSDEQLKSGTASVVCLLNNFYPREAKVQWKVDNALQSGNSQESVTEQDSKDSTYSLSSTLTLSKADYEKHKVYACEVTHQGLSSPVTKSFNRGEC
# B16: 1.2.1-1 (antibody, human IgG1, kappa)
# heavy: B1 heavy with A10E, T12K, Q118M
# light: B1 light with S91V, N95R
# B17: 1.3.1-1 (antibody, human IgG1, kappa)
# heavy: B1 heavy with Q3S
# light: B1 light with S91V, N95R
# Legend:
# gp120 CAAN = gp120 CAAN (HIV (CAAN)); experiment: single-point ELISA at EC50 conc. of A-1
# gp120 SHIV SF162 P3 = gp120 SHIV SF162 P3 (SHIV SF162 P3); experiment: single-point ELISA at EC50 conc. of A-1
# gp120 Bal = gp120 Bal (HIV (Bal)); experiment: single-point ELISA at EC50 conc. of A-1
# BSA = BSA (UniProt P02769 25-607); experiment: single-point ELISA, BSA control
Binder,ELISA A450 (gp120 CAAN) [A450],ELISA A450 (gp120 SHIV SF162 P3) [A450],ELISA A450 (gp120 Bal) [A450],ELISA A450 (BSA) [A450]
B1,1.02,1.04,0.88,0.06
B2,0.95,1.07,0.9,0.06
B3,0.98,0.97,0.88,0.06
B4,0.92,1.01,0.9,0.07
B5,1.07,1.09,0.96,0.06
B6,0.99,1.1,0.97,0.06
B7,0.93,1.09,0.98,0.06
B8,1.01,0.9,0.91,0.06
B9,0.86,0.98,0.9,0.06
B10,0.96,0.87,0.87,0.06
B11,1.04,0.89,0.93,0.06
B12,0.94,0.84,0.87,0.07
B13,0.96,0.83,0.9,0.06
B14,0.75,0.72,0.96,0.08
B15,0.88,0.72,0.93,0.06
B16,1.01,1.02,0.93,0.07
B17,0.94,1.13,0.97,0.06
